According to patent US20050288217A1:

Target: αVβ3 integrin (UniProt P06756)
Experiment: binding to αVβ3, against the unsubstituted sequence

αVβ3 integrin, sequence (P06756 31-1048, chain 1 of 2): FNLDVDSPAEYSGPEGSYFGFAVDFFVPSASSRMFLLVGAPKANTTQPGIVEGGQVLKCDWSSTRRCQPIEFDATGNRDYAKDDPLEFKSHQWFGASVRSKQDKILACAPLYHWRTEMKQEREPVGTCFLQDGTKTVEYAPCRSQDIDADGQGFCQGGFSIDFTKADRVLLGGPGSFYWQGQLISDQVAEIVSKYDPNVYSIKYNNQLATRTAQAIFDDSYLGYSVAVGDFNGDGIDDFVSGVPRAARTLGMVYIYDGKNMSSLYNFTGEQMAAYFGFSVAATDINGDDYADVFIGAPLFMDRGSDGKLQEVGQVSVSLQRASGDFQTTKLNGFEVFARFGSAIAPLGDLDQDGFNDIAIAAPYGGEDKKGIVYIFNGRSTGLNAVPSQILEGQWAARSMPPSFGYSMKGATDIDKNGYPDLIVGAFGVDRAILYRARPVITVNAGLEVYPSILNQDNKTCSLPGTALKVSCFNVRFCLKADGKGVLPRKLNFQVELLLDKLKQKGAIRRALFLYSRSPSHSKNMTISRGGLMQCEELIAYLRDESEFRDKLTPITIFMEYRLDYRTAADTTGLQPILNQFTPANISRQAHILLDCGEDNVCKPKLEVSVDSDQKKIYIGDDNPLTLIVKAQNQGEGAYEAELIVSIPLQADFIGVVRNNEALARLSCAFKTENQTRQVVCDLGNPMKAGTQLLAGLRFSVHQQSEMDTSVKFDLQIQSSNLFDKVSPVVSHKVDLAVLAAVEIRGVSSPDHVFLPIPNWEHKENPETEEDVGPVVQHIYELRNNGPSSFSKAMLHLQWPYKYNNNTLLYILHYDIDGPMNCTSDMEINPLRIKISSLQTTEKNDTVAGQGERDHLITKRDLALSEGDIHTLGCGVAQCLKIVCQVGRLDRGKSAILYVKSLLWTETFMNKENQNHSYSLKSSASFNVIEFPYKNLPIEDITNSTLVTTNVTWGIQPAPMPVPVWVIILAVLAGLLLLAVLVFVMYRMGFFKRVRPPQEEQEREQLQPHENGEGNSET
αVβ3 integrin, sequence (P05106 27-788, chain 2 of 2, further chain): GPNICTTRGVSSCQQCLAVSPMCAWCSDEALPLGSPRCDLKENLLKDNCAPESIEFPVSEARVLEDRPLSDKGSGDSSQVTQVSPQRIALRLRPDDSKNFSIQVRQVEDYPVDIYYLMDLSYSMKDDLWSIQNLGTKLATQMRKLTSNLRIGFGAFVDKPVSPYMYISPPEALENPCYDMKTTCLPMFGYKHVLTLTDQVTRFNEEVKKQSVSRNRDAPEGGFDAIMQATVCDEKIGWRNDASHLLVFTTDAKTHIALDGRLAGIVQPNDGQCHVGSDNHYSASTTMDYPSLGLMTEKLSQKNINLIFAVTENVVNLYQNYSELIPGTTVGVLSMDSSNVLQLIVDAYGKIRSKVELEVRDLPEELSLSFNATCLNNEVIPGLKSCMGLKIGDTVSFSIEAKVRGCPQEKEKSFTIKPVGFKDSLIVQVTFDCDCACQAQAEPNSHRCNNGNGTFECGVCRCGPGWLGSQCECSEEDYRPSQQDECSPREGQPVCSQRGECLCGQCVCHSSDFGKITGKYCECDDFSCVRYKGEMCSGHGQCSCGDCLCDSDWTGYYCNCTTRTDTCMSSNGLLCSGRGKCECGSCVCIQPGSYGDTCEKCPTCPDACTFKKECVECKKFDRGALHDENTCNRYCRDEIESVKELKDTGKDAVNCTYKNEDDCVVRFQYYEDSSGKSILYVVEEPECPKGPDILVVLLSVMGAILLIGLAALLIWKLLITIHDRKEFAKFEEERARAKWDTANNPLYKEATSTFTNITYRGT

- decrease in binding: 70%
Substance: vitronectin sequence with the single arginine at position 374 changed to alanine (peptide)
